The values that follow come from PMC3781043, “A Transcript Profiling Approach Reveals an Abscisic Acid-Specific Glycosyltransferase (UGT73C14) Induced in Developing Fiber of Ligon lintless-2 Mutant of Cotton (Gossypium hirsutum L.)” (PLoS ONE, 2013).

Substrate in data set [1]: CC1=CC(=O)CC(C)(C)[C@@]1(O)/C=C/C(C)=C/C(=O)O
As to the kind of experiment: HPLC-MS of ABA glucoside formed, hyperbolic regression. The class given is biochemical, Gossypium hirsutum. The note with it: 2.5 mM UDP-glucose as sugar donor, 50 mM MgCl2, 500 µM ATP, 50 mM Tris-HCl pH 8.0, 30°C. From the text:
(§1) HPLC-MS of ABA glucoside formed, hyperbolic regression on UGT73C14

Substrate in data set [2]: CC1=CC(=O)CC(C)(C)[C@@]1(O)/C=C/C(C)=C\C(=O)O
The description is as above. The following applies: 2.5 mM UDP-glucose as sugar donor, 50 mM MgCl2, 500 µM ATP, 50 mM Tris-HCl pH 8.0, 30°C. The class given is biochemical, Gossypium hirsutum.
Source text: as §1

B1: UGT73C14 (Gossypium hirsutum) (protein)
chain: AQGHFVLIPFMAQGHLIPMVDIGRLLAQRGVTVTIVTTPYNAGRVQKSVARAIESGLPIRLLQLQFPGKEVGLIDGVENIDMLHSMEDLIKFVSAANKMEEAMLKLFEKLTPRPNCIISDINLFYTRKIASKFQVPKISFHGFCCFCLLCLRNIQSSKINETVTSDSEYFTVPGLTDKVEFTRVQLPLDNDGSWKEIFEPMWEADRASYGVVINTFEELESAYVKEYRKEKKAWCIGPVSLSHKDELDMAERGNKTSIDGQKCLKWLDSQQPGSVIYACLGSIGTIKCPELIELGLGLEASNKPFIWVLRGNNPTASEVYKWIRRNEFEERTKGRGLVVVGWAPQVLILSHPAIGGFLTHCGWNSIIEGISAGVPLITFPFMGDQFCNEKLAVQILKIGVNLGANKPTMLGDEKSGFILNTEHVKNAIDKLMEQGNEGKEMRKRAKELGDEANKAVEVGGSSYMNITLLIQDILQQSQEMR
notes: about 99 kDa
Regarding B1, in data set [1], the Km stood at 98.1 µM, the Vmax was found to be 82.9 µmol/min, the kcat amounted to 2.7 s⁻¹ and the kcat/Km came out at 27100 M⁻¹ s⁻¹. For the same protein, in data set [2], the Km worked out at 61.7 µM, the Vmax was 221 µmol/min, the kcat stood at 7.2 s⁻¹ and the kcat/Km was found to be 115000 M⁻¹ s⁻¹.
